# Laboratory results as given in patent US20170355766A1 (Xencor, published 2017).
# Key:
# Assay in all cases: SPR (Biacore)
# [1] = target: T1, human V158 FcγRIIIa receptor protein (6xHis and GST tags) (human, UniProt P08637 17-208, limits assumed)
# T1 construct: also called VIIIa
# FcγRIIaR = target: T2, FcγRIIaR (human, UniProt P12318)
# T2 construct: recombinant receptor protein with 6xHis and GST tags; also called R131 FcγRIIa
# T2 sequence (receptor, looked up): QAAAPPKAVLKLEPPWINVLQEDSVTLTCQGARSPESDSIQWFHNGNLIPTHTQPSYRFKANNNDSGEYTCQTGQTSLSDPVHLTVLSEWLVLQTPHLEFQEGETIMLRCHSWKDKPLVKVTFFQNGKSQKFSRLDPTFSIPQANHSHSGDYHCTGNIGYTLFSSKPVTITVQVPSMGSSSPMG
# [2] = target: T3, human H131 FcγRIIa receptor protein (6xHis and GST tags) (human, UniProt P12318 34-217, limits assumed)
# T3 construct: also called HIIa
# T3 sequence (looked up): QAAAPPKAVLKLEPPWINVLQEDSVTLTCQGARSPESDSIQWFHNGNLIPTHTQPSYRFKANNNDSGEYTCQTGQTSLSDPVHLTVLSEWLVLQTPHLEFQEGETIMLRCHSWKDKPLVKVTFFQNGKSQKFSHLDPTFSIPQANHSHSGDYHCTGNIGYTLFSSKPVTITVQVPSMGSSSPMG
# [3] = target: T4, human FcγRIIb receptor protein (R&D Systems) (human, UniProt P31994 46-217)
# T4 construct: Analyte injected over antibodies captured on a protein A/G chip (Biacore); also called CD32b
# T4 sequence (looked up): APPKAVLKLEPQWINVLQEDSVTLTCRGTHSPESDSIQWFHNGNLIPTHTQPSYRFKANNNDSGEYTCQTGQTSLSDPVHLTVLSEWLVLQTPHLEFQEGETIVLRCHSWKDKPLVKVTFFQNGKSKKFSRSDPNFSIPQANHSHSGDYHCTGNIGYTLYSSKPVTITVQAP
# [4] = target: T5, human FcγRI receptor protein (R&D Systems) (human, UniProt P12314 16-288)
# T5 construct: also called CD64
# T5 sequence (P12314 16-288 limits assumed): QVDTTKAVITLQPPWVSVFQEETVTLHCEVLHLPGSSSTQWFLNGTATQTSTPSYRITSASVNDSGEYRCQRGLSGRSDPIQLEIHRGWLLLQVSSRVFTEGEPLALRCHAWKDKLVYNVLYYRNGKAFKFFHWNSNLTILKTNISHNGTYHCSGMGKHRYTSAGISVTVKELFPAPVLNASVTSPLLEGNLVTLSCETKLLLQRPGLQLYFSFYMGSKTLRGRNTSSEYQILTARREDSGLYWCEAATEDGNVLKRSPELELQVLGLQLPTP
# T1 sequence (P08637 17-208 F176V limits assumed): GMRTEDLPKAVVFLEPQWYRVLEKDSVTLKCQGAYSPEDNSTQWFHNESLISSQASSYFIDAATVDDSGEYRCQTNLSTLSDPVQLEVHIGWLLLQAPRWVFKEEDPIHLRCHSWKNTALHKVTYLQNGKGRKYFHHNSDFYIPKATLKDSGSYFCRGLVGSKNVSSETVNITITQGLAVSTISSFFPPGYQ
binder,measurement,setting,value
"A327D (antibody, human IgG1, kappa, HuAM4G7 IgG1 Fc variant) heavy: not shown light: DIVMTQSPATLSLSPGERATLSCRSSKSLQNVNGNTYLYWFQQKPGQSPQLLIYRMSNLNSGVPDRFSGSGSGTEFTLTISSLEPEDFAVYYCMQHLEYPITFGAGTKLEIKRTVAAPSVFIFPPSDEQLKSGTASVVCLLNNFYPREAKVQWKVDNALQSGNSQESVTEQDSKDSTYSLSSTLTLSKADYEKHKVYACEVTHQGLSSPVTKSFNRGEC",Fold FcγRIIIaV,[1],0.398 fold
same,Fold FcγRIIaR,FcγRIIaR,1.6 fold
same,Fold FcγRIIaH,[2],0.733 fold
same,Fold FcγRIIb,[3],1.33 fold
same,Fold FcγRI,[4],2.06 fold
"G236D/S239D/S267E (antibody, human IgG1, kappa, HuAM4G7 IgG1 Fc variant) heavy: EVQLVESGGGLVKPGGSLKLSCAASGYTFTSYVMHWVRQAPGKGLEWIGYINPYNDGTKYNEKFQGRVTISSDKSISTAYMELSSLRSEDTAMYYCARGTYYYGTRVFDYWGQGTLVTVSSASTKGPSVFPLAPSSKSTSGGTAALGCLVKDYFPEPVTVSWNSGALTSGVHTFPAVLQSSGLYSLSSVVTVPSSSLGTQTYICNVNHKPSNTKVDKKVEPKSCDKTHTCPPCPAPELLDGPDVFLFPPKPKDTLMISRTPEVTCVVVDVEHEDPEVKFNWYVDGVEVHNAKTKPREEQYNSTYRVVSVLTVLHQDWLNGKEYKCKVSNKALPAPIEKTISKAKGQPREPQVYTLPPSREEMTKNQVSLTCLVKGFYPSDIAVEWESNGQPENNYKTTPPVLDSDGSFFLYSKLTVDKSRWQQGNVFSCSVMHEALHNHYTQKSLSLSPGK light: DIVMTQSPATLSLSPGERATLSCRSSKSLQNVNGNTYLYWFQQKPGQSPQLLIYRMSNLNSGVPDRFSGSGSGTEFTLTISSLEPEDFAVYYCMQHLEYPITFGAGTKLEIKRTVAAPSVFIFPPSDEQLKSGTASVVCLLNNFYPREAKVQWKVDNALQSGNSQESVTEQDSKDSTYSLSSTLTLSKADYEKHKVYACEVTHQGLSSPVTKSFNRGEC",binding result,[1],no binding
same,Fold FcγRIIaR,FcγRIIaR,26.7 fold
same,Fold FcγRIIaH,[2],0.217 fold
same,Fold FcγRIIb,[3],84.8 fold
same,Fold FcγRI,[4],0.0685 fold
"S267E/L328Y (antibody, human IgG1, kappa, HuAM4G7 IgG1 Fc variant) heavy: not shown light: DIVMTQSPATLSLSPGERATLSCRSSKSLQNVNGNTYLYWFQQKPGQSPQLLIYRMSNLNSGVPDRFSGSGSGTEFTLTISSLEPEDFAVYYCMQHLEYPITFGAGTKLEIKRTVAAPSVFIFPPSDEQLKSGTASVVCLLNNFYPREAKVQWKVDNALQSGNSQESVTEQDSKDSTYSLSSTLTLSKADYEKHKVYACEVTHQGLSSPVTKSFNRGEC",binding result,[1],no binding
same,Fold FcγRIIaR,FcγRIIaR,122 fold
same,Fold FcγRIIb,[3],43.1 fold
same,Fold FcγRI,[4],0.224 fold
"S267A (antibody, human IgG1, kappa, HuAM4G7 IgG1 Fc variant) heavy: not shown light: DIVMTQSPATLSLSPGERATLSCRSSKSLQNVNGNTYLYWFQQKPGQSPQLLIYRMSNLNSGVPDRFSGSGSGTEFTLTISSLEPEDFAVYYCMQHLEYPITFGAGTKLEIKRTVAAPSVFIFPPSDEQLKSGTASVVCLLNNFYPREAKVQWKVDNALQSGNSQESVTEQDSKDSTYSLSSTLTLSKADYEKHKVYACEVTHQGLSSPVTKSFNRGEC",Fold FcγRIIIaV,[1],0.952 fold
same,Fold FcγRIIaR,FcγRIIaR,4.29 fold
same,Fold FcγRIIb,[3],3.6 fold
same,Fold FcγRI,[4],1.15 fold
"G236S (antibody, human IgG1, kappa, HuAM4G7 IgG1 Fc variant) heavy: not shown light: DIVMTQSPATLSLSPGERATLSCRSSKSLQNVNGNTYLYWFQQKPGQSPQLLIYRMSNLNSGVPDRFSGSGSGTEFTLTISSLEPEDFAVYYCMQHLEYPITFGAGTKLEIKRTVAAPSVFIFPPSDEQLKSGTASVVCLLNNFYPREAKVQWKVDNALQSGNSQESVTEQDSKDSTYSLSSTLTLSKADYEKHKVYACEVTHQGLSSPVTKSFNRGEC",Fold FcγRIIaR,FcγRIIaR,2.33 fold
same,Fold FcγRIIaH,[2],3.76 fold
same,Fold FcγRIIb,[3],1.02 fold
same,Fold FcγRI,[4],0.0268 fold
"S239D/S267E/L328F (antibody, human IgG1, kappa, HuAM4G7 IgG1 Fc variant) heavy: EVQLVESGGGLVKPGGSLKLSCAASGYTFTSYVMHWVRQAPGKGLEWIGYINPYNDGTKYNEKFQGRVTISSDKSISTAYMELSSLRSEDTAMYYCARGTYYYGTRVFDYWGQGTLVTVSSASTKGPSVFPLAPSSKSTSGGTAALGCLVKDYFPEPVTVSWNSGALTSGVHTFPAVLQSSGLYSLSSVVTVPSSSLGTQTYICNVNHKPSNTKVDKKVEPKSCDKTHTCPPCPAPELLGGPDVFLFPPKPKDTLMISRTPEVTCVVVDVEHEDPEVKFNWYVDGVEVHNAKTKPREEQYNSTYRVVSVLTVLHQDWLNGKEYKCKVSNKAFPAPIEKTISKAKGQPREPQVYTLPPSREEMTKNQVSLTCLVKGFYPSDIAVEWESNGQPENNYKTTPPVLDSDGSFFLYSKLTVDKSRWQQGNVFSCSVMHEALHNHYTQKSLSLSPGK light: DIVMTQSPATLSLSPGERATLSCRSSKSLQNVNGNTYLYWFQQKPGQSPQLLIYRMSNLNSGVPDRFSGSGSGTEFTLTISSLEPEDFAVYYCMQHLEYPITFGAGTKLEIKRTVAAPSVFIFPPSDEQLKSGTASVVCLLNNFYPREAKVQWKVDNALQSGNSQESVTEQDSKDSTYSLSSTLTLSKADYEKHKVYACEVTHQGLSSPVTKSFNRGEC",Fold FcγRIIIaV,[1],0.216 fold
same,Fold FcγRIIaR,FcγRIIaR,416 fold
same,Fold FcγRIIb,[3],428 fold
same,Fold FcγRI,[4],1.45 fold
"A327N (antibody, human IgG1, kappa, HuAM4G7 IgG1 Fc variant) heavy: not shown light: DIVMTQSPATLSLSPGERATLSCRSSKSLQNVNGNTYLYWFQQKPGQSPQLLIYRMSNLNSGVPDRFSGSGSGTEFTLTISSLEPEDFAVYYCMQHLEYPITFGAGTKLEIKRTVAAPSVFIFPPSDEQLKSGTASVVCLLNNFYPREAKVQWKVDNALQSGNSQESVTEQDSKDSTYSLSSTLTLSKADYEKHKVYACEVTHQGLSSPVTKSFNRGEC",binding result,[1],no binding
same,Fold FcγRIIaR,FcγRIIaR,0.609 fold
same,binding result,[2],no binding
same,Fold FcγRIIb,[3],0.843 fold
same,Fold FcγRI,[4],0.0279 fold
"S267D (antibody, human IgG1, kappa, HuAM4G7 IgG1 Fc variant) heavy: not shown light: DIVMTQSPATLSLSPGERATLSCRSSKSLQNVNGNTYLYWFQQKPGQSPQLLIYRMSNLNSGVPDRFSGSGSGTEFTLTISSLEPEDFAVYYCMQHLEYPITFGAGTKLEIKRTVAAPSVFIFPPSDEQLKSGTASVVCLLNNFYPREAKVQWKVDNALQSGNSQESVTEQDSKDSTYSLSSTLTLSKADYEKHKVYACEVTHQGLSSPVTKSFNRGEC",Fold FcγRIIIaV,[1],1.51 fold
same,Fold FcγRIIaR,FcγRIIaR,8.99 fold
same,Fold FcγRIIb,[3],4.45 fold
same,Fold FcγRI,[4],2.11 fold
"anti-CD19 antibody HuAM4G7 IgG1 Fc variant S239D/S267E (antibody, Positions are EU numbers, not positions on the UniProt entry; copies: 2 + 2) heavy: not shown light: DIVMTQSPATLSLSPGERATLSCRSSKSLQNVNGNTYLYWFQQKPGQSPQLLIYRMSNLNSGVPDRFSGSGSGTEFTLTISSLEPEDFAVYYCMQHLEYPITFGAGTKLEIKRTVAAPSVFIFPPSDEQLKSGTASVVCLLNNFYPREAKVQWKVDNALQSGNSQESVTEQDSKDSTYSLSSTLTLSKADYEKHKVYACEVTHQGLSSPVTKSFNRGEC",Fold FcγRIIIaV,[1],3.74 fold
same,Fold FcγRIIaR,FcγRIIaR,120 fold
same,Fold FcγRIIb,[3],111 fold
same,Fold FcγRI,[4],23.2 fold
"V266M (antibody, human IgG1, kappa, HuAM4G7 IgG1 Fc variant) heavy: not shown light: DIVMTQSPATLSLSPGERATLSCRSSKSLQNVNGNTYLYWFQQKPGQSPQLLIYRMSNLNSGVPDRFSGSGSGTEFTLTISSLEPEDFAVYYCMQHLEYPITFGAGTKLEIKRTVAAPSVFIFPPSDEQLKSGTASVVCLLNNFYPREAKVQWKVDNALQSGNSQESVTEQDSKDSTYSLSSTLTLSKADYEKHKVYACEVTHQGLSSPVTKSFNRGEC",Fold FcγRIIIaV,[1],0.547 fold
same,Fold FcγRIIaR,FcγRIIaR,3.13 fold
same,Fold FcγRIIb,[3],1.91 fold
same,Fold FcγRI,[4],1.25 fold
"G236T (antibody, human IgG1, kappa, HuAM4G7 IgG1 Fc variant) heavy: not shown light: DIVMTQSPATLSLSPGERATLSCRSSKSLQNVNGNTYLYWFQQKPGQSPQLLIYRMSNLNSGVPDRFSGSGSGTEFTLTISSLEPEDFAVYYCMQHLEYPITFGAGTKLEIKRTVAAPSVFIFPPSDEQLKSGTASVVCLLNNFYPREAKVQWKVDNALQSGNSQESVTEQDSKDSTYSLSSTLTLSKADYEKHKVYACEVTHQGLSSPVTKSFNRGEC",binding result,[1],no binding
same,Fold FcγRIIaR,FcγRIIaR,0.35 fold
same,Fold FcγRIIaH,[2],0.486 fold
same,Fold FcγRI,[4],0.0157 fold
"S239E (antibody, human IgG1, kappa, HuAM4G7 IgG1 Fc variant) heavy: not shown light: DIVMTQSPATLSLSPGERATLSCRSSKSLQNVNGNTYLYWFQQKPGQSPQLLIYRMSNLNSGVPDRFSGSGSGTEFTLTISSLEPEDFAVYYCMQHLEYPITFGAGTKLEIKRTVAAPSVFIFPPSDEQLKSGTASVVCLLNNFYPREAKVQWKVDNALQSGNSQESVTEQDSKDSTYSLSSTLTLSKADYEKHKVYACEVTHQGLSSPVTKSFNRGEC",Fold FcγRIIIaV,[1],3.49 fold
same,Fold FcγRIIaR,FcγRIIaR,0.688 fold
same,Fold FcγRIIb,[3],0.803 fold
same,Fold FcγRI,[4],1.65 fold
